Laboratory results as given in the supplement of paper PMC9732359.
± gives the uncertainty stated by the source.

Test: protein stability index of a GFP-peptide fusion (yeast GPS) (PSI 1-4); higher = more stable; sorted into four equal gates, so the index is relative within each strain
Summary of the method: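 Yeast carrying a pooled library were grown to mid-log phase in leucine-free medium. Each library plasmid expresses Cherry and has a tiled 17-residue yeast protein peptide fused downstream of GFP. Cells were sorted into four equal gates by GFP/Cherry ratio, and plasmids from each gate were PCR-amplified, Illumina-sequenced and assigned to strains by barcode. Summing, across gates, the read frequency times the gate number gave each peptide's protein stability index.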

Sequence | protein stability index (doa10∆) | protein stability index (pdr5∆) | protein stability index (san1∆) | protein stability index (ubr1∆)
SINISCVQLIKCLVEKS [SWI1] | 1.78 ± 0.067 | 2.41 ± 0.055 | 2.27 ± 0.1 | 1.81 ± 0.045
ITLALADAGIELVDMAG [MTR3] | 1.89 ± 0.072 | 2.43 ± 0.065 | 2.2 ± 0.1 | 2.12 ± 0.075
NAIFQMESEEVPLTKRY [PCI8] | 2.81 ± 0.05 | 2.82 ± 0.045 | 2.85 ± 0.038 | 3.08 ± 0.044
NDPAREKFSSFIESIVV [SNF12] | 2.78 ± 0.056 | 2.8 ± 0.058 | 2.27 ± 0.071 | 2.77 ± 0.04
KTAQTLDENLNSLSSNL [YJL041W/NSP1] | 2.48 ± 0.04 | 2.29 ± 0.055 | 2.23 ± 0.061 | 2.46 ± 0.037
HVLKTVDYGGAEWSLVR [SNU114] | 3.09 ± 0.19 | 3.42 ± 0.21 | 3.11 ± 0.18 | 1.31 ± 0.29
LGKFKNIIASPLSAGFN [SIN4] | 1.88 ± 0.06 | 1.94 ± 0.05 | 1.95 ± 0.09 | 2.04 ± 0.056
QKSFEQLNSRAVAVVVD [RPN11] | 1.45 ± 0.12 | 1.72 ± 0.09 | 1.51 ± 0.16 | 1.48 ± 0.058
SKSKQSFTQGELNDLKW [YMR129W/POM152] | 3.02 ± 0.13 | 2.81 ± 0.13 | 3.08 ± 0.11 | 2.75 ± 0.092
KVSAREKSAYKFFHNGM [FAS2] | 3.5 ± 0.14 | 3.39 ± 0.14 | 3.35 ± 0.099 | 3.54 ± 0.13
KADIGKPGRMPFNFTVT [CDC53] | 2.33 ± 0.042 | 2.75 ± 0.048 | 2.73 ± 0.058 | 2.89 ± 0.05
GNSERPSAVAGFINQKN [YIL149C/MLP2] | 3.31 ± 0.1 | 3.29 ± 0.12 | 2.93 ± 0.097 | 3.03 ± 0.051
VQEMALGGPITKESQPT [FAS2] | 2.78 ± 0.099 | 2.72 ± 0.078 | 2.87 ± 0.065 | 3.01 ± 0.05
GQLPQLPKLNLPKYQTI [SNF5] | 2.78 ± 0.062 | 2.67 ± 0.055 | 2.57 ± 0.074 | 2.71 ± 0.047
STRLKKACKTADKLVNV [SRP68] | 3.38 ± 0.081 | 3.26 ± 0.073 | 2.98 ± 0.074 | 3.18 ± 0.052
KTIQINNEKVVQYLRSV [YML031W/NDC1] | 3.23 ± 0.17 | 3.24 ± 0.12 | – | –
SHPEKRMIPPRMVRSIM [SSN3] | 3.25 ± 0.1 | 3.01 ± 0.075 | 2.33 ± 0.065 | 3.19 ± 0.066
IDIQTQDLNQRFQDPYV [RRI1] | – | 2.86 ± 0.18 | 2.28 ± 0.22 | –
FITFSLDDWISIGYETE [IRR1] | 2.56 ± 0.078 | 2.61 ± 0.088 | 2.65 ± 0.084 | 2.6 ± 0.071
GNPYIELNQDRLGGDDL [SNF5] | 3.05 ± 0.092 | 3.24 ± 0.098 | 3.03 ± 0.11 | 3.27 ± 0.049
LGKWYSKEDYETLKRDR [ARP7] | 3.31 ± 0.15 | 2.75 ± 0.2 | 3.33 ± 0.16 | 2.95 ± 0.15
HPWEQAKEVKVLYHTSG [PRP8] | 2.81 ± 0.23 | 2.78 ± 0.14 | 3.03 ± 0.085 | 2.9 ± 0.091
NSADVDMDAQGRSDSNT [YGL100W/SEH1] | 3.45 ± 0.096 | 3.39 ± 0.088 | 3.1 ± 0.12 | 3.29 ± 0.061
GGTNEDDFTDAIQFVKE [YCS4] | 2.35 ± 0.14 | 2.6 ± 0.15 | 3.39 ± 0.07 | 3.69 ± 0.19
KLRDHEPDLESQISKAE [SMC4] | 2.07 ± 0.13 | 1.31 ± 0.21 | 3.16 ± 0.16 | –

Sequence | protein stability index (doa10∆) | protein stability index (pdr5∆) | protein stability index (san1∆) | protein stability index (ubr1∆)
QNKLFYITNADDSTKFQ [SIR3] | 2.96 ± 0.085 | 3.02 ± 0.084 | 3.01 ± 0.078 | 3.27 ± 0.067
PIIATYGNRAEQFLETD [SRP68] | 2.09 ± 0.09 | 2.48 ± 0.063 | 2.26 ± 0.14 | 2.72 ± 0.084
TVAVLPPNWKYESATAS [RPS13] | 1.63 ± 0.036 | 2.06 ± 0.037 | 2.07 ± 0.055 | 1.97 ± 0.028
LNIGLGAVGLKDLTLCR [YCS4] | 2.3 ± 0.079 | 2.41 ± 0.1 | 2.15 ± 0.095 | 2.53 ± 0.056
IAHNISAKNRVVILARA [RPL32] | 1.66 ± 0.043 | 1.71 ± 0.058 | 1.76 ± 0.085 | 1.52 ± 0.043
RNSKLLNTKSIQIDEET [MCD1] | 3.21 ± 0.23 | 2.63 ± 0.084 | 3.18 ± 0.061 | 3.33 ± 0.12
AVSVANGFMHAGTTDNS [RPN2] | 1.25 ± 0.062 | 1.4 ± 0.051 | 1.17 ± 0.24 | 1.28 ± 0.067
RGRGRGRGRGRGRPPKA [SNF2] | 3.22 ± 0.075 | 3.2 ± 0.066 | 3.37 ± 0.041 | 3.27 ± 0.06
IHIQSKENYPWELYTDF [POP3] | 2.99 ± 0.095 | 3.16 ± 0.12 | 2.69 ± 0.12 | 3.12 ± 0.075
DVYSPEKGSWEQLSPQD [BRR2] | 3.15 ± 0.15 | – | 2.47 ± 0.24 | 3.34 ± 0.25
NAANVPVENIWADIFAK [RPP1A] | 2.2 ± 0.083 | 2.51 ± 0.11 | 2.48 ± 0.1 | 2.34 ± 0.081
DLNPLKTLNLFKQIKSA [RPO31] | 2 ± 0.16 | 1.37 ± 0.033 | 2.62 ± 0.11 | 2.15 ± 0.071
RVKDPQWLIMLGICTHL [RIP1] | 2.62 ± 0.064 | 2.48 ± 0.055 | 2.36 ± 0.075 | 2.91 ± 0.045
ILVDSLTGNQLPTPTPT [SWI1] | 2.73 ± 0.066 | 2.76 ± 0.073 | 2.93 ± 0.048 | 2.73 ± 0.045
MGKSAVIFVERATPATL [SRB2] | 2.36 ± 0.14 | 1.31 ± 0.076 | 1.66 ± 0.2 | 1.31 ± 0.29
KQRAGTASFIPLDTIET [SMC1] | 2.62 ± 0.06 | 2.82 ± 0.064 | 2.65 ± 0.056 | 2.66 ± 0.051
LIETVFVKNIRMLSFED [RPN9] | 2.19 ± 0.044 | 1.89 ± 0.05 | 1.78 ± 0.066 | 1.97 ± 0.041
TDDSFEDKVFASKGRTK [BRN1] | – | 2.74 ± 0.099 | 2.93 ± 0.13 | 2.29 ± 0.18
EPHAVSLAWSADGQTLF [ASC1] | 2.85 ± 0.12 | 3.06 ± 0.14 | – | 2.79 ± 0.26
RNNVMLLIATNLKEYNK [SRB8] | 2.44 ± 0.11 | 2.11 ± 0.099 | 2.74 ± 0.081 | 2.21 ± 0.072
DEFKDITKEVTQVNILK [YIL149C/MLP2] | 3.14 ± 0.082 | 3.2 ± 0.075 | 2.67 ± 0.14 | 3.3 ± 0.057
VSETPKRIKGLEFSALS [RPO31] | 3.01 ± 0.12 | 2.94 ± 0.12 | 3.01 ± 0.086 | 2.97 ± 0.1
RLERRINLTKVTQKDIC [CSI1] | 2.88 ± 0.079 | 2.82 ± 0.13 | 3.18 ± 0.065 | 3.29 ± 0.12
HKSGKLSVKIGNVVMDI [RPC53] | 1.53 ± 0.1 | 1.25 ± 0.073 | 1.07 ± 0.2 | –
